Source: article PMC10658506, “An engineered interleukin‐11 decoy cytokine inhibits receptor signaling and proliferation in lung adenocarcinoma” (Bioengineering & Translational Medicine, 2023)
Numbering of substitutions follows the chain as printed. In names and notes the source's numbering stands.

T1: mIL-11R-mFc (mouse, UniProt Q64385 24-372)
T1 construct: interleukin-11 receptor, mouse (mIL-11R), mouse Fc fusion; also called mouse IL-11R; source: bought: R&D Systems, 7405-MR
T1 sequence (looked up): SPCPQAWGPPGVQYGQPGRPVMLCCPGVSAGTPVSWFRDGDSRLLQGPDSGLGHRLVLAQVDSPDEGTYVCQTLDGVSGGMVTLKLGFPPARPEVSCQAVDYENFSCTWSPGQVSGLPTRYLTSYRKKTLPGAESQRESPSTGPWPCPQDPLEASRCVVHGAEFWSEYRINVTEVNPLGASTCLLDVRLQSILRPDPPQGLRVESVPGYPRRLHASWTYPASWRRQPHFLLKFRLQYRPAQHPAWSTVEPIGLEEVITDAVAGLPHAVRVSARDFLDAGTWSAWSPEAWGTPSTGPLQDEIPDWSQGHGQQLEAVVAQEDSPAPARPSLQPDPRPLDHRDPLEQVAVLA

T2: biotinylated IL-11R-Fc (human, UniProt Q14626 24-370, biotin)
T2 construct: interleukin-11 receptor (IL-11R), human, Fc fusion; source: bought: Acro, ILR-H82F5
T2 sequence (looked up): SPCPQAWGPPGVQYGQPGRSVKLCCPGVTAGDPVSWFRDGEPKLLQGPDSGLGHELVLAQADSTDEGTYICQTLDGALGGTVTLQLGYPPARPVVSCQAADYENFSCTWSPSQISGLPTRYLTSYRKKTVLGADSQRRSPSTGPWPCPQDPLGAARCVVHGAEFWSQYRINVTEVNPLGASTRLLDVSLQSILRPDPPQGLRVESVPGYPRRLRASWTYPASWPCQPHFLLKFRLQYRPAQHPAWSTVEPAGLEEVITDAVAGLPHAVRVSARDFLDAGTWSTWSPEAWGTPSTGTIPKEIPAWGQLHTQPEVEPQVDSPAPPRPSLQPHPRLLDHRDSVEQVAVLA

T3: soluble mouse IL-11 receptor (mouse, UniProt Q64385 24-372)
T3 construct: interleukin-11 receptor, mouse (mIL-11R), soluble; also called mIL-11R; source: bought: Sino Biological, 50,075-M08H-100
T3 sequence (looked up): T1 sequence (looked up)

B1: soluble recombinant wild-type human IL-11 (ligand)
chain: SPDPRAELDSTVLLTRSLLADTRQLAAQLRDKFPADGDHNLDSLPTLAMSAGALGALQLPGVLTRLRADLLSYLRHVQWLRRAGGSSLKTLEPELGTLQARLDRLLRRLQLLMSRLALPQPPPDPPAPPLAPPSSAWGGIRAAHAILGGLHLTLDWAVRGLLLLKTRL
notes: interleukin-11 (IL-11), human; also called WT IL-11; IL-11 WT; source: E. coli BL21, purified (cobalt beads), cleaved with TEV protease; not shown: His6, N-terminal, cleaved; thioredoxin, N-terminal, cleaved
B2: enIL-11 (engineered human IL-11, GIPR RA S60T), soluble (designed binder)
chain: B1 chain with D9G, T11I, L14R, L47P, S50T, G52R, W137A
notes: interleukin-11 (IL-11), human; source: E. coli BL21, purified (cobalt beads), cleaved with TEV protease; not shown: His6, N-terminal, cleaved; thioredoxin, N-terminal, cleaved
B3: yeast-displayed wild-type human IL-11 (ligand, UniProt P20809 22-199, looked up)
chain: PGPPPGPPRVSPDPRAELDSTVLLTRSLLADTRQLAAQLRDKFPADGDHNLDSLPTLAMSAGALGALQLPGVLTRLRADLLSYLRHVQWLRRAGGSSLKTLEPELGTLQARLDRLLRRLQLLMSRLALPQPPPDPPAPPLAPPSSAWGGIRAAHAILGGLHLTLDWAVRGLLLLKTRL
notes: interleukin-11 (IL-11), human, residues Pro22 to Leu199 of the precursor; also called IL-11 WT; WT IL-11; not shown: c-myc, C-terminal, kept
B4: yeast-displayed mouse IL-11 wild-type (ligand, UniProt P47873 22-199, looked up)
chain: PGPPAGSPRVSSDPRADLDSAVLLTRSLLADTRQLAAQMRDKFPADGDHSLDSLPTLAMSAGTLGSLQLPGVLTRLRVDLMSYLRHVQWLRRAGGPSLKTLEPELGALQARLERLLRRLQLLMSRLALPQAAPDQPVIPLGPPASAWGSIRAAHAILGGLHLTLDWAVRGLLLLKTRL
notes: interleukin-11, mouse; also called mIL-11; mIL-11 WT; not shown: c-myc, C-terminal, kept

Legend:
[1] = target: T1, mIL-11R-mFc; experiment: BLI; mIL-11R-mFc loaded on antimouse Fc biosensors at 1.25 ug/mL in kinetics buffer; three-fold serial dilutions of WT IL-11 or enIL-11; apparent Kd; binding to enIL-11 performed by Antibody Solutions; settings: both partners purified
[2] = target: T2, biotinylated IL-11R-Fc; experiment: BLI; biotinylated IL-11R-Fc loaded on streptavidin biosensors at 1.25 ug/mL in kinetics buffer; three-fold serial dilutions of WT IL-11 or enIL-11; apparent Kd; binding to enIL-11 performed by Antibody Solutions; settings: both partners purified
[3] = target: T3, soluble mouse IL-11 receptor; experiment: flow cytometry on cells; yeast-displayed IL-11 variants incubated with varying concentrations of soluble IL-11R or mIL-11R overnight at room temperature, washed with BPBS; receptor detected with anti-his AF647, display with anti-c-myc; apparent Kd from the fraction bound of the expressing population; settings: one partner purified

| Binder | Kd [1] [nM] | Kd [2] [nM] | Kd [3] [nM] |
| --- | --- | --- | --- |
| B1 | 11 ± 0.3 | 9.5 ± 0.3 |  |
| B2 | 0.16 ± 0.01 | 0.41 ± 0.01 |  |
| B3 |  |  | 2.2 ± 0.3 |
| B4 |  |  | 3.1 ± 0.8 |
